Experimental data published in doi:10.1101/2020.10.25.354548 (bioRxiv, 2020).

Target: SARS-CoV-2 spike protein receptor binding domain (RBD) (SARS-CoV-2, UniProt P0DTC2)
Test: ELISA

B1: bovine ACE2-Fc (bovine angiotensin I converting enzyme 2 fused to human IgG1 Fc) (Fc fusion)
chain: QSTTEEQAKTFLEKFNHEAEDLSYQSSLASWNYNTNITDENVQKMNEARAKWSAFYEEQSRMAKTYSLEEIQNLTLKRQLKALQHSGTSALSAEKSKRLNTILNKMSTIYSTGKVLDPNTQECLALEPGLDDIMENSRDYNRRLWAWEGWRAEVGKQLRPLYEEYVVLENEMARANNYEDYGDYWRGDYEVTGAGDYDYSRDQLMKDVERTFAEIKPLYEQLHAYVRAKLMHTYPSYISPTGCLPAHLLGDMWGRFWTNLYSLTVPFEHKPSIDVTEKMENQSWDAERIFKEAEKFFVSISLPYMTQGFWDNSMLTEPGDGRKVVCHPTAWDLGKGDFRIKMCTKVTMDDFLTAHHEMGHIQYDMAYAAQPYLLRNGANEGFHEAVGEIMSLSAATPHYLKALGLLAPDFHEDNETEINFLLKQALTIVGTLPFTYMLEKWRWMVFKGEIPKQQWMEKWWEMKREIVGVVEPLPHDETYCDPACLFHVAEDYSFIRYYTRTIYQFQFHEALCKTAKHEGALFKCDISNSTEAGQRLLQMLRLGKSEPWTLALENIVGIKTMDVKPLLNYFEPLFTWLKEQNRNSFVGWSTEWTPYSDQSIKVRISLKSALGENAYEWNDNEMYLFQSSVAYAMRKYFSEARNETVLFGEDNVWVSDKKPRISFKFFVTSPNNVSDIIPRTEVENAIRLSRDRINDVFQLDDNSLEFLGIQPTLGPPYEPPVT
B1 gave an EC50 of 1.3 nM.
